Results as given in US20260008817A1, “CYCLIC PEPTIDE OR SALT THEREOF, AND USES THEREOF” (FUJIFILM Corporation, priority 2023, published 2026).
Positions of bridges follow the written chain, without caps; N, C: chain ends. Non-standard residues stand in square brackets, D forms with d. No end group written: not given here. COCH2 = acetyl group that carries the bridge; hCys = N[C@@H](CCS)C(=O)O; Orn = NCCC[C@H](N)C(=O)O; Dab = NCC[C@H](N)C(=O)O; Dap = NC[C@H](N)C(=O)O

How the values were obtained:
[1] = target: T1, Recombinant Human FGFR1 alpha (IIIc) Fc Chimera Protein (Homo sapiens, UniProt P11362); experiment: ELISA binding affinity of enzymatically synthesized peptide to FGFR; conditions: ELISA luminescence signal at 10 nmol/L peptide, SEQ ID NO: 239 standardized to 1; enzyme synthesis product
T1 construct: purchased R&D systems 658-FR-050
T1 sequence (P11362 with tags, fused parts or gaps limits assumed): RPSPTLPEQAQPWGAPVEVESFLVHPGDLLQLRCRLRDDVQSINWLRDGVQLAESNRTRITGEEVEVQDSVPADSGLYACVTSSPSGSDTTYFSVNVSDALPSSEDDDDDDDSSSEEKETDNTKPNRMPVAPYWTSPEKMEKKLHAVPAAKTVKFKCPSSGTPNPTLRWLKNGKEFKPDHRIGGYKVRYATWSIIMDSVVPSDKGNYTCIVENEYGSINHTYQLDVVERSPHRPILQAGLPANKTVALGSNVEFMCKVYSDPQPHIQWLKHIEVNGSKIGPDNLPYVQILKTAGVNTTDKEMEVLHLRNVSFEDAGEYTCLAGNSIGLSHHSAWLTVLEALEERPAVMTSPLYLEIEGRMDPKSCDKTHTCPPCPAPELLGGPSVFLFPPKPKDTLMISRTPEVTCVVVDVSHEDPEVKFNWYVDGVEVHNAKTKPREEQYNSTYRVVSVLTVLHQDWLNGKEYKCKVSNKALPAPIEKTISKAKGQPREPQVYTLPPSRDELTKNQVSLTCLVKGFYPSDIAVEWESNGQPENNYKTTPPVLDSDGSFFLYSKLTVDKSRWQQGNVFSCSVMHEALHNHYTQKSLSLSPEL
Method in brief: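 Cell-free PUREfrex-translated cyclic peptides (Myc/HiBiT-tagged, quantified by HiBiT luminescence) bound 3 h at room temperature to immobilized FGFR1α(IIIc)-Fc, detected with anti-Myc and chemiluminescence. FGFR-specific signal at 10 nmol/L normalized to a reference cyclic peptide and graded A–D.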

[2] = target: Recombinant Human FGFR1 alpha (IIIc) Fc Chimera Protein, CF (R&D systems, 658-FR-050) (human) (UniProt P11362); experiment: SPR grade, peptide 10 nmol/L over FGFR1-Fc; conditions: scale: moleculesofcyclicpeptide/onemoleculeoffgfr
Chain of Recombinant Human FGFR1 alpha (IIIc) Fc Chimera Protein, CF (R&D systems, 658-FR-050) (human) (P11362 22-376, change not shown): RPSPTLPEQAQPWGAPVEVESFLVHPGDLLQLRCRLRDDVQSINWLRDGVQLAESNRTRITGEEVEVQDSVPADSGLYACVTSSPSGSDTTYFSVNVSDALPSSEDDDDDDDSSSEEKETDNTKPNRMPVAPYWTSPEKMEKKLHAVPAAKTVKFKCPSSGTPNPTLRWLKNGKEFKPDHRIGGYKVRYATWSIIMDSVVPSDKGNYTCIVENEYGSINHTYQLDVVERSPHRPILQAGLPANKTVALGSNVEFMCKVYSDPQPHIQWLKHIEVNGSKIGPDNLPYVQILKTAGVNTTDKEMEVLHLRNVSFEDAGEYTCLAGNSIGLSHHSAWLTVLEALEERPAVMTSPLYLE

| Molecule | Evaluation result of binding affinity to FGFR [1] | binding amount (SPR, molecules of cyclic peptide bound per one molecule of FGFR at 10 nmol/L peptide) [2] |
| --- | --- | --- |
| 47 (NCVYTFDAHAHSLHAALTK(COCH2)I; thioether 2-19 (inferred)) [compound 47] | A (0.7 or more) | – |
| 206 (ICVYTFDAHAHSLHHALTK(COCH2)I; thioether 2-19 (inferred)) [compound 206] | A (0.7 or more) | – |
| 92 (ICVYTFDIHAHSLHAALTK(COCH2)I; thioether 2-19 (inferred)) [compound 92] | C (0.1 or more and less than 0.5) | – |
| 205 (ICVYTFDAHAHSLHRALTK(COCH2)I; thioether 2-19 (inferred)) [compound 205] | A (0.7 or more) | – |
| 218 (ICVYTFDAHAHSLHAALFK(COCH2)I; thioether 2-19 (inferred)) [compound 218] | C (0.1 or more and less than 0.5) | – |
| 220 (ICVYTFDAHAHSLHAALQK(COCH2)I; thioether 2-19 (inferred)) [compound 220] | A (0.7 or more) | – |
| 117 (ICVYTFDARAHSLHAALTKI; Description of Artificial Sequence: Cyclic peptide) [compound 117] | A (0.7 or more) | – |
| 191 (ICVYTFDAHAHSLRAALTK(COCH2)I; thioether 2-19 (inferred)) [compound 191] | B (0.5 or more and less than 0.7) | – |
| 35 (CDRTLLYYRLSC; disulfide 1-12 (inferred)) [compound 35] | D (less than 0.1) | – |
| 60 (ICTYTFDAHAHSLHAALTK(COCH2)I; thioether 2-19 (inferred)) [compound 60] | C (0.1 or more and less than 0.5) | – |
| 38 (ICVYTFDAHAHSLHAALTKI; not fully specified; Description of Artificial Sequence: Cyclic peptide) [compound 38] | A (0.7 or more) | – |
| 234 (ICVYTFDAHAHSLHAALTK(COCH2)T; thioether 2-19 (inferred)) [compound 234] | C (0.1 or more and less than 0.5) | – |
| 235 (ICVYTFDAHAHSLHAALTK(COCH2)R; thioether 2-19 (inferred)) [compound 235] | A (0.7 or more) | – |
| 62 (ICVWTFDAHAHSLHAALTK(COCH2)I; thioether 2-19 (inferred)) [compound 62] | C (0.1 or more and less than 0.5) | – |
| 231 (ICVYTFDAHAHSLHAALTK(COCH2)N; thioether 2-19 (inferred)) [compound 231] | C (0.1 or more and less than 0.5) | – |
| 245 (NCVYYAKPVFAHANRVWTYIK(COCH2)I; thioether 2-21 (inferred)) [compound 245] | A (0.7 or more) | – |
| 68 (ICVYVFDAHAHSLHAALTK(COCH2)I; thioether 2-19 (inferred)) [compound 68] | C (0.1 or more and less than 0.5) | – |
| 51 (DCVYTFDAHAHSLHAALTK(COCH2)I; thioether 2-19 (inferred)) [compound 51] | A (0.7 or more) | – |
| 100 (ICVYTFDEHAHSLHAALTKI; Description of Artificial Sequence: Cyclic peptide) [compound 100] | A (0.7 or more) | – |

| Molecule | Evaluation result of binding affinity to FGFR [1] | binding amount (SPR, molecules of cyclic peptide bound per one molecule of FGFR at 10 nmol/L peptide) [2] |
| --- | --- | --- |
| 77 (ICVYTWDAHAHSLHAALTK(COCH2)I; thioether 2-19 (inferred)) [compound 77] | B (0.5 or more and less than 0.7) | – |
| 113 (ICVYTFDASAHSLHAALTKI; Description of Artificial Sequence: Cyclic peptide) [compound 113] | A (0.7 or more) | – |
| 34 (CRALLRGAPFHLAEC; disulfide 1-15 (inferred)) [compound 34] | D (less than 0.1) | – |
| 217 (ICVYTFDAHAHSLHAALVK(COCH2)I; thioether 2-19 (inferred)) [compound 217] | C (0.1 or more and less than 0.5) | – |
| 153 (ICVYTFDAHAHYLHAALTK(COCH2)I; thioether 2-19 (inferred)) [compound 153] | C (0.1 or more and less than 0.5) | – |
| 53 (RCVYTFDAHAHSLHAALTK(COCH2)I; thioether 2-19 (inferred)) [compound 53] | A (0.7 or more) | – |
| 159 (ICVYTFDAHAHELHAALTK(COCH2)I; thioether 2-19 (inferred)) [compound 159] | A (0.7 or more) | – |
| 142 (ICVYTFDAHASSLHAALTK(COCH2)I; thioether 2-19 (inferred)) [compound 142] | A (0.7 or more) | – |
| 203 (ICVYTFDAHAHSLHDALTK(COCH2)I; thioether 2-19 (inferred)) [compound 203] | A (0.7 or more) | – |
| 158 (ICVYTFDAHAHDLHAALTK(COCH2)I; thioether 2-19 (inferred)) [compound 158] | A (0.7 or more) | – |
| 130 (ICVYTFDAHHHSLHAALTKI; Description of Artificial Sequence: Cyclic peptide) [compound 130] | C (0.1 or more and less than 0.5) | – |
| 196 (ICVYTFDAHAHSLHFALTK(COCH2)I; thioether 2-19 (inferred)) [compound 196] | C (0.1 or more and less than 0.5) | – |
| 37 (CDRTLLYYRLSK; not fully specified; Description of Artificial Sequence: Cyclic peptide) [compound 37] | D (less than 0.1) | – |
| 178 (ICVYTFDAHAHSLPAALTK(COCH2)I; thioether 2-19 (inferred)) [compound 178] | A (0.7 or more) | – |
| 89 (ICVYTFDGHAHSLHAALTK(COCH2)I; thioether 2-19 (inferred)) [compound 89] | B (0.5 or more and less than 0.7) | – |
| 244 (DCTQGKILTYSQALFSFGVK(COCH2)I; thioether 2-20 (inferred)) [compound 244] | A (0.7 or more) | – |
| 233 (ICVYTFDAHAHSLHAALTK(COCH2)S; thioether 2-19 (inferred)) [compound 233] | C (0.1 or more and less than 0.5) | – |
| 192 (ICVYTFDAHAHSLHGALTK(COCH2)I; thioether 2-19 (inferred)) [compound 192] | A (0.7 or more) | – |

Now from value to molecule:

| Evaluation result of binding affinity to FGFR [1] | binding amount (SPR, molecules of cyclic peptide bound per one molecule of FGFR at 10 nmol/L peptide) [2] | Molecule |
| --- | --- | --- |
| A (0.7 or more) | – | 323 (ICVYTFDANAHSLDAALTK(COCH2)I; thioether 2-19 (inferred)) [compound 323] |
| C (0.1 or more and less than 0.5) | – | 264 (VCIFTWDRVHWPVKV; Description of Artificial Sequence: Cyclic peptide) [compound 264] |
| A (0.7 or more) | – | 312 (ICVYTFDAHAQSLDDALTK(COCH2)I; thioether 2-19 (inferred)) [compound 312] |
| A (0.7 or more) | – | 313 (FCVYTFDAHAHSLDAALNK(COCH2)I; thioether 2-19 (inferred)) [compound 313] |
| C (0.1 or more and less than 0.5) | – | 248 (QCWLQGPYWSDIKIYIYQHDK(COCH2)Y; thioether 2-21 (inferred)) [compound 248] |
| C (0.1 or more and less than 0.5) | – | 254 (LCVYTFNWQQKFGHHLTK(COCH2)I; thioether 2-18 (inferred)) [compound 254] |
| A (0.7 or more) | – | 269 (HCLWQWTPQTHFVKL; Description of Artificial Sequence: Cyclic peptide) [compound 269] |
| A (0.7 or more) | – | 266 (DCIWQWHPWSGYTKL; Description of Artificial Sequence: Cyclic peptide) [compound 266] |
| A (0.7 or more) | – | 267 (DCIWQWTPTKSFQKL; Description of Artificial Sequence: Cyclic peptide) [compound 267] |
| C (0.1 or more and less than 0.5) | – | 277 (TCPVWAWHQAFQFGWK(COCH2)I; thioether 2-16 (inferred)) [compound 277] |
| A (0.7 or more) | – | 314 (FCVYTFDAHAHSLHDALNK(COCH2)I; thioether 2-19 (inferred)) [compound 314] |
| C (0.1 or more and less than 0.5) | – | 271 (LCQLGVYTYVALFYKF; Description of Artificial Sequence: Cyclic peptide) [compound 271] |
| – | > 0.7 | A[hCys]VWTFDRHAQEISQALH[Orn](COCH2)VKKK (thioether 2-19) [cyclic peptide SEQ ID NO: 328] |
| – | > 0.7 | A[hCys]VWTFDRHAQEISQALH[Dap](COCH2)VKKK (thioether 2-19) [cyclic peptide SEQ ID NO: 330] |
| – | 0.5 to 0.7 | A[hCys]VWTFDRHAQEISQALH[Dab](COCH2)VKKK (thioether 2-19) [cyclic peptide SEQ ID NO: 329] |
| – | > 0.7 | A[hCys]VWTFDRHAQEISQALHK(COCH2)VKKK (thioether 2-19) [cyclic peptide SEQ ID NO: 327] |
